Test results: US20190112348A1

Key:
[1] = target: purified recombinant human insulin receptor (either with or without exon 11) (human) (UniProt P06213); assay: SPA competition vs A14Tyr[125I]-human insulin on recombinant human insulin receptor, relative to human insulin, 0% HSA
[2] = target: purified recombinant human insulin receptor (either with or without exon 11) (human) (UniProt P06213); assay: SPA competition vs A14Tyr[125I]-human insulin on recombinant human insulin receptor, relative to human insulin, 4.5% HSA in buffer

Sequence of purified recombinant human insulin receptor (either with or without exon 11) (human) (P06213 other isoform, or with tags, fused parts or gaps limits assumed, form in doubt): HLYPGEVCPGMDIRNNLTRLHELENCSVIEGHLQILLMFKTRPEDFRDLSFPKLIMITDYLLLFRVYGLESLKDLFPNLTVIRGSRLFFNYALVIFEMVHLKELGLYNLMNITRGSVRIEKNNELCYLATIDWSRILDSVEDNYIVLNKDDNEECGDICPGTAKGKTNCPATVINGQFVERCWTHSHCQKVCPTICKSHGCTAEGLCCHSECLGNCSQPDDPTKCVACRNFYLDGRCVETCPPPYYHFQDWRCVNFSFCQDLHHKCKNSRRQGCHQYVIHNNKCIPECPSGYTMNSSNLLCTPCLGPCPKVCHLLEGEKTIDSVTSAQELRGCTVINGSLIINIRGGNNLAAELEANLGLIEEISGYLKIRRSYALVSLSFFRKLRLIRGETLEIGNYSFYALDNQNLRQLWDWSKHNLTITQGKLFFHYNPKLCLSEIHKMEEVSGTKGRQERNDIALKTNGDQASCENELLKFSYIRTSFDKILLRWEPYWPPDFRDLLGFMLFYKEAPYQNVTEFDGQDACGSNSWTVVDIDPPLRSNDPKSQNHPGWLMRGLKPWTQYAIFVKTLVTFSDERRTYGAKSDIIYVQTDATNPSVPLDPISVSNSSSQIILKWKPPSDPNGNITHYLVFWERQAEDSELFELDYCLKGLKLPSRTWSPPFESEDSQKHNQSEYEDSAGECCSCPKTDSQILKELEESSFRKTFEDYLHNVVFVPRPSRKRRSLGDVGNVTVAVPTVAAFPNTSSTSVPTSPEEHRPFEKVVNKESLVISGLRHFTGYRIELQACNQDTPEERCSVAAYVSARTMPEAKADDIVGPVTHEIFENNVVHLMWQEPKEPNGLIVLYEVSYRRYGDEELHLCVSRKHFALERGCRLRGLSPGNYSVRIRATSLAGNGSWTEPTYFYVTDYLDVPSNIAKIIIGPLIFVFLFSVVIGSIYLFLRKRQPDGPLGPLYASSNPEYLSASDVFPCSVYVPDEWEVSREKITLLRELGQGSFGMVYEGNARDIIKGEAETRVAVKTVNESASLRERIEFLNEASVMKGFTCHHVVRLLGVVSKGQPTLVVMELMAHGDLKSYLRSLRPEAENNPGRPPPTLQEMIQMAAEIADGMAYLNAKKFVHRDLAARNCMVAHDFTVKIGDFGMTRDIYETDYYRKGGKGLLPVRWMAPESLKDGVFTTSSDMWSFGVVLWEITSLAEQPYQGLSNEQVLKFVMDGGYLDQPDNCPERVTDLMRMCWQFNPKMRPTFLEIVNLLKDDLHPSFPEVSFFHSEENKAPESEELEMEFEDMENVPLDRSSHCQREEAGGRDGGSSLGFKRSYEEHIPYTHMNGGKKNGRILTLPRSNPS

| Substance | Relative IR-A affinity (@ 0% HSA) [1] | Relative IR-A affinity (@ 4.5% HSA) [2] |
| --- | --- | --- |
| A14E, B25H, B27K(N^εOctadecanedioyl-γGlu-OEG-OEG), desB28, desB29, desB30 Human Insulin (from UniProt P01308 90-110; P01308 25-51) (ligand) | 1.9% | 0.08% |
| A14E, B25H, desB27, B29K(N^εOctadecanedioyl-γGlu-OEG-OEG), desB30 Human Insulin (from UniProt P01308 90-110; P01308 25-50; P01308 52-53) (ligand) | 2.5% |  |
